Data as given in article PMC3384721.
“And” between values parts separate entries of the source, which are not always exact repeats. Equal entries are not always repeated.

Experiments:
[1] = molecular target: A4V mutant copper-zinc superoxide dismutase (A4VSOD1) (human) (UniProt P00441); test: AUC
[2] = molecular target: A4V mutant copper-zinc superoxide dismutase (A4VSOD1) (human) (UniProt P00441); test: atomic force microscopy

- percent of total protein as dimer [1]: 31.7%
- percent of total protein as tetramer [1]: 37.6%
- stoichiometry N [1]: 2 and 4
- stoichiometry N [2]: 4
Substance: A4V mutant copper-zinc superoxide dismutase (A4VSOD1) (from UniProt P00441 6-154) (enzyme)
